Literature values as cited in patent publication US8853185B2, “Coferons and methods of making and using them” (Cornell University, priority 2008, dated 2014).

Assays:
Details in all cases: read-out: DISSOCIATION CONSTANT (Kd)
NF2 = target: T1, NF2 (Homo sapiens, UniProt P35240)
T1 sequence (P35240 1-595): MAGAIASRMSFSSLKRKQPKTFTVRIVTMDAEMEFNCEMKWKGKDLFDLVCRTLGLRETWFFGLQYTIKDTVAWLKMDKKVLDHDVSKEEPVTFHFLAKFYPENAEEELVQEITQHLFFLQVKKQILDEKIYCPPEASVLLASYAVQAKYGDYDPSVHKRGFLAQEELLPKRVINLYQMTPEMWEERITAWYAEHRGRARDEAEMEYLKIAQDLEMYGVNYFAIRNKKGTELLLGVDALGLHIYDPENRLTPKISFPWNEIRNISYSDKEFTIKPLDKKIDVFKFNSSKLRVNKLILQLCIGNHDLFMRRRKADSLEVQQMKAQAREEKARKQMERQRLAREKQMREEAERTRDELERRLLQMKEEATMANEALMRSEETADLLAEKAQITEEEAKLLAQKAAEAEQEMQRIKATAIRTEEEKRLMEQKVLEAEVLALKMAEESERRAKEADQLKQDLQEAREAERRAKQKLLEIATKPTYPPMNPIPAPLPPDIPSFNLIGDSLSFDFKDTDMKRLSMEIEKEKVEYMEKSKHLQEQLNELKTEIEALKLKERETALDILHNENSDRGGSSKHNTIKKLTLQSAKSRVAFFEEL

GABP β = GABP β (Homo sapiens, UniProt Q06547)
Chain of GABP β (Q06547 whole entry): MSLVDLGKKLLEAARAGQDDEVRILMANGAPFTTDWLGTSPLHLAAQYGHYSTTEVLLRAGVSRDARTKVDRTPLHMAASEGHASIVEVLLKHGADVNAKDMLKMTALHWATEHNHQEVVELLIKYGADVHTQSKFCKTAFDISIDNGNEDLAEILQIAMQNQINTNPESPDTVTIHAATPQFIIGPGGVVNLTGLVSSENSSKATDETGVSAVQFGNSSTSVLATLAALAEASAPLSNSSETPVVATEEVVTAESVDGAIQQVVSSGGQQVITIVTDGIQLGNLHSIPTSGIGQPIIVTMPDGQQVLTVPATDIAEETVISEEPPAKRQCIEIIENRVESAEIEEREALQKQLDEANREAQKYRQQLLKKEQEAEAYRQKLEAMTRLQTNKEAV

p53 = p53 (Homo sapiens, UniProt P04637)
Chain of p53 (P04637 whole entry, species assumed): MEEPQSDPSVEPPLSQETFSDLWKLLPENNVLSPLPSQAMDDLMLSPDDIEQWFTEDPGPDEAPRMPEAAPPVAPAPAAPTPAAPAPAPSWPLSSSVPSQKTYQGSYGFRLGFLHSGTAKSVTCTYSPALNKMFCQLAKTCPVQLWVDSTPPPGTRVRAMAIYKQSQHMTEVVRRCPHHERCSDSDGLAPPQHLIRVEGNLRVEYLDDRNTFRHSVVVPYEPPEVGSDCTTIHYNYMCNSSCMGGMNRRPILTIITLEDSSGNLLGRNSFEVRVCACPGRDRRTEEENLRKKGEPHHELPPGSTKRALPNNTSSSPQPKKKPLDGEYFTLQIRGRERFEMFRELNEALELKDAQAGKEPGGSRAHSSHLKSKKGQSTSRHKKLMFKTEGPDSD

ASK1 = target: T2, ASK1 (Homo sapiens, UniProt Q99683)
T2 sequence (Q99683 1-1374): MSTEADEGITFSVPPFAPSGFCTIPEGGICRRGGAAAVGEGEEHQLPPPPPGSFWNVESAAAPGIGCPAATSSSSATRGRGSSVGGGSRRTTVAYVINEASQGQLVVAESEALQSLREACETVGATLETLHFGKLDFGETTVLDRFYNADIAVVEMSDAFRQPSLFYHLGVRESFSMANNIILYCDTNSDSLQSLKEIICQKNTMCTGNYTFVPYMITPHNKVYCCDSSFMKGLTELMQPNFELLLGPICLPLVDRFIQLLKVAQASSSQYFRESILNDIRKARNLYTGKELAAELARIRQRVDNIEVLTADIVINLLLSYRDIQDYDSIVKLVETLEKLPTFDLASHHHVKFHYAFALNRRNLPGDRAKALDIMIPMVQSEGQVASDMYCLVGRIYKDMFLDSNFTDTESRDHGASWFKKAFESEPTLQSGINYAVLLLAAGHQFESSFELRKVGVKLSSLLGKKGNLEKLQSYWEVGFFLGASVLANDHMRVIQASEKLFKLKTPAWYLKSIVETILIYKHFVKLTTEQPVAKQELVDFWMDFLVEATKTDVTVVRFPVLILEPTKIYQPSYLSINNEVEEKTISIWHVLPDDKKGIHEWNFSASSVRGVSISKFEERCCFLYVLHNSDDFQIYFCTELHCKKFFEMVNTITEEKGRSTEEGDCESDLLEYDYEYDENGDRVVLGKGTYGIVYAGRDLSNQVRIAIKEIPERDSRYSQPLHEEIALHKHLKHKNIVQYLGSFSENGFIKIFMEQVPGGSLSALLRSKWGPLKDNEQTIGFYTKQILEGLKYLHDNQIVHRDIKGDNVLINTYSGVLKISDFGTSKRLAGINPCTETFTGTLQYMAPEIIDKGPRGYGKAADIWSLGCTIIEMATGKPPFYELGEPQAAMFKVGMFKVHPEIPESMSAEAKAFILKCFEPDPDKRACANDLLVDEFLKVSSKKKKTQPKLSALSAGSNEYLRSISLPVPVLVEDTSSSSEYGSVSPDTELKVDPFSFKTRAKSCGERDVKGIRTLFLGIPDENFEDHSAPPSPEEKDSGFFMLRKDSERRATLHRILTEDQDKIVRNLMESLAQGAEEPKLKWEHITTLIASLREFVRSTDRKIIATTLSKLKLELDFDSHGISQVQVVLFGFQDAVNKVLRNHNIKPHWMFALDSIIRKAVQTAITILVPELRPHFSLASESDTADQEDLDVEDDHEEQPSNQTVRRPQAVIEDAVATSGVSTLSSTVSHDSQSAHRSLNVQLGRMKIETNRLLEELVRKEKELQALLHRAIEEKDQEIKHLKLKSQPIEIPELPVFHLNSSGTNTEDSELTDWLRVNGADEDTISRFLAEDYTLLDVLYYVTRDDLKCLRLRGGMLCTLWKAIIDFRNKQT

MKK4 = target: T3, MKK4 (Homo sapiens, UniProt P45985)
T3 sequence (P45985 1-399): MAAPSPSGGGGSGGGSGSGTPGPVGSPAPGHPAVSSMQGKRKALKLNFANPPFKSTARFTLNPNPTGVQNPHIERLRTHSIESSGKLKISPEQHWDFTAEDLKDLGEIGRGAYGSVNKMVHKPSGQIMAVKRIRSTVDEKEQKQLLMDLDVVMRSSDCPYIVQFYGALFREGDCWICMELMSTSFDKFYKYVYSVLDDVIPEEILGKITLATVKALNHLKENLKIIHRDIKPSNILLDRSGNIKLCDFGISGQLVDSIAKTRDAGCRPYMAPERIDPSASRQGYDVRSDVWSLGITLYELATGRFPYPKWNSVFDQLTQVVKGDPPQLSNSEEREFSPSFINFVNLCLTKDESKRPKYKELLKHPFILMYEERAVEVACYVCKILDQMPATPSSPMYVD

B1: MPP1: binding partner of NF2 (protein, UniProt Q00013 2-466, looked up)
55 kDa erythrocyte membrane …: TLKASEGESGGSMHTALSDLYLEHLLQKRSRPEAVSHPLNTVTEDMYTNGSPAPGSPAQVKGQEVRKVRLIQFEKVTEEPMGITLKLNEKQSCTVARILHGGMIHRQGSLHVGDEILEINGTNVTNHSVDQLQKAMKETKGMISLKVIPNQQSRLPALQMFMRAQFDYDPKKDNLIPCKEAGLKFATGDIIQIINKDDSNWWQGRVEGSSKESAGLIPSPELQEWRVASMAQSAPSEAPSCSPFGKKKKYKDKYLAKHSSIFDQLDVVSYEEVVRLPAFKRKTLVLIGASGVGRSHIKNALLSQNPEKFVYPVPYTTRPPRKSEEDGKEYHFISTEEMTRNISANEFLEFGSYQGNMFGTKFETVHQIHKQNKIAILDIEPQTLKIVRTAELSPFIVFIAPTDQGTQTEALQQLQKDSEAIRSQYAHYFDLSLVNNGVDETLKKLQEAFDQACSSPQWVPVSWVY
For B1, the Kd (NF2) is given as 3.7 nM.

B2: GABP β: binding partner of GABP β (protein, UniProt Q06547 2-395, looked up)
GA-binding protein subunit …: SLVDLGKKLLEAARAGQDDEVRILMANGAPFTTDWLGTSPLHLAAQYGHYSTTEVLLRAGVSRDARTKVDRTPLHMAASEGHASIVEVLLKHGADVNAKDMLKMTALHWATEHNHQEVVELLIKYGADVHTQSKFCKTAFDISIDNGNEDLAEILQIAMQNQINTNPESPDTVTIHAATPQFIIGPGGVVNLTGLVSSENSSKATDETGVSAVQFGNSSTSVLATLAALAEASAPLSNSSETPVVATEEVVTAESVDGAIQQVVSSGGQQVITIVTDGIQLGNLHSIPTSGIGQPIIVTMPDGQQVLTVPATDIAEETVISEEPPAKRQCIEIIENRVESAEIEEREALQKQLDEANREAQKYRQQLLKKEQEAEAYRQKLEAMTRLQTNKEAV
In the case of B2, the Kd (GABP β) is listed as 600 nM.

B3: HmtSSB: binding partner of p53 (protein, UniProt Q04837 17-148, looked up)
Single-stranded DNA-binding …: ESETTTSLVLERSLNRVHLLGRVGQDPVLRQVEGKNPVTIFSLATNEMWRSGDSEVYQLGDVSQKTTWHRISVFRPGLRDVAYQYVKKGSRIYLEGKIDYGEYMDKNNVRRQATTIIADNIIFLSDQTKEKE
In the case of B3, the Kd (p53) is given as 12700 nM.

B4: ASK1: binding partner of ASK1 (protein, UniProt Q99683 1-1374, looked up)
Mitogen-activated protein …: MSTEADEGITFSVPPFAPSGFCTIPEGGICRRGGAAAVGEGEEHQLPPPPPGSFWNVESAAAPGIGCPAATSSSSATRGRGSSVGGGSRRTTVAYVINEASQGQLVVAESEALQSLREACETVGATLETLHFGKLDFGETTVLDRFYNADIAVVEMSDAFRQPSLFYHLGVRESFSMANNIILYCDTNSDSLQSLKEIICQKNTMCTGNYTFVPYMITPHNKVYCCDSSFMKGLTELMQPNFELLLGPICLPLVDRFIQLLKVAQASSSQYFRESILNDIRKARNLYTGKELAAELARIRQRVDNIEVLTADIVINLLLSYRDIQDYDSIVKLVETLEKLPTFDLASHHHVKFHYAFALNRRNLPGDRAKALDIMIPMVQSEGQVASDMYCLVGRIYKDMFLDSNFTDTESRDHGASWFKKAFESEPTLQSGINYAVLLLAAGHQFESSFELRKVGVKLSSLLGKKGNLEKLQSYWEVGFFLGASVLANDHMRVIQASEKLFKLKTPAWYLKSIVETILIYKHFVKLTTEQPVAKQELVDFWMDFLVEATKTDVTVVRFPVLILEPTKIYQPSYLSINNEVEEKTISIWHVLPDDKKGIHEWNFSASSVRGVSISKFEERCCFLYVLHNSDDFQIYFCTELHCKKFFEMVNTITEEKGRSTEEGDCESDLLEYDYEYDENGDRVVLGKGTYGIVYAGRDLSNQVRIAIKEIPERDSRYSQPLHEEIALHKHLKHKNIVQYLGSFSENGFIKIFMEQVPGGSLSALLRSKWGPLKDNEQTIGFYTKQILEGLKYLHDNQIVHRDIKGDNVLINTYSGVLKISDFGTSKRLAGINPCTETFTGTLQYMAPEIIDKGPRGYGKAADIWSLGCTIIEMATGKPPFYELGEPQAAMFKVGMFKVHPEIPESMSAEAKAFILKCFEPDPDKRACANDLLVDEFLKVSSKKKKTQPKLSALSAGSNEYLRSISLPVPVLVEDTSSSSEYGSVSPDTELKVDPFSFKTRAKSCGERDVKGIRTLFLGIPDENFEDHSAPPSPEEKDSGFFMLRKDSERRATLHRILTEDQDKIVRNLMESLAQGAEEPKLKWEHITTLIASLREFVRSTDRKIIATTLSKLKLELDFDSHGISQVQVVLFGFQDAVNKVLRNHNIKPHWMFALDSIIRKAVQTAITILVPELRPHFSLASESDTADQEDLDVEDDHEEQPSNQTVRRPQAVIEDAVATSGVSTLSSTVSHDSQSAHRSLNVQLGRMKIETNRLLEELVRKEKELQALLHRAIEEKDQEIKHLKLKSQPIEIPELPVFHLNSSGTNTEDSELTDWLRVNGADEDTISRFLAEDYTLLDVLYYVTRDDLKCLRLRGGMLCTLWKAIIDFRNKQT
For B4, the Kd (ASK1) is listed as 220 nM.

B5: JNK3: binding partner of MKK4 (protein, UniProt P53779 1-464, looked up)
Mitogen-activated protein …: MSLHFLYYCSEPTLDVKIAFCQGFDKQVDVSYIAKHYNMSKSKVDNQFYSVEVGDSTFTVLKRYQNLKPIGSGAQGIVCAAYDAVLDRNVAIKKLSRPFQNQTHAKRAYRELVLMKCVNHKNIISLLNVFTPQKTLEEFQDVYLVMELMDANLCQVIQMELDHERMSYLLYQMLCGIKHLHSAGIIHRDLKPSNIVVKSDCTLKILDFGLARTAGTSFMMTPYVVTRYYRAPEVILGMGYKENVDIWSVGCIMGEMVRHKILFPGRDYIDQWNKVIEQLGTPCPEFMKKLQPTVRNYVENRPKYAGLTFPKLFPDSLFPADSEHNKLKASQARDLLSKMLVIDPAKRISVDDALQHPYINVWYDPAEVEAPPPQIYDKQLDEREHTIEEWKELIYKEVMNSEEKTKNGVVKGQPSPSGAAVNSSESLPPSSSVNDISSMSTDQTLASDTDSSLEASAGPLGCCR
In the case of B5, the Kd (MKK4) is listed as 35000 nM.
